Results published in the supplement of paper PMC10567573.

B1: GNB5 (parent)
chain: DINSVRYYPSGDAFASGSDDATCR

Variants of: B1
Assay: protein stability index of a GFP-peptide fusion (GPS, HEK-293T) (PSI 1-6); higher = more stable
Details: c terminus: a fixed tail appended
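Note: lentivirally expressed fusions sorted by FACS into six bins by GFP to DsRed ratio, PSI derived from sequencing read proportions per bin multiplied by bin number.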

Going from DINSARYYPSGDAFASGSDDATCR [V5A] to DINSGRYYPSGDAFASGSDDATCR [V5G], the protein stability index falls from 4.38 to 3.77.

Compared with DINSRRYYPSGDAFASGSDDATCR [V5R], DINSHRYYPSGDAFASGSDDATCR [V5H] is higher in protein stability index: 3.73 for the first, 3.91 for the second.

Compared with DINSTRYYPSGDAFASGSDDATCR [V5T], DINSMRYYPSGDAFASGSDDATCR [V5M] is lower in protein stability index: 4.28 for the first, 3.92 for the second.

Compared with DINSSRYYPSGDAFASGSDDATCR [V5S], DINSNRYYPSGDAFASGSDDATCR [V5N] is lower in protein stability index: 4.26 for the first, 3.46 for the second.

First: DINSLRYYPSGDAFASGSDDATCR [V5L]
Second: DINSVRYYWSGDAFASGSDDATCR [P9W]
The protein stability index of the first is higher: 3.49 for the first, 3.23 for the second.

Compared with DINSVRYYYSGDAFASGSDDATCR [P9Y], DINSVRYYGSGDAFASGSDDATCR [P9G] is higher in protein stability index: 3.35 for the first, 4.13 for the second.

Going from DINSVRYYHSGDAFASGSDDATCR [P9H] to DINSVRYYASGDAFASGSDDATCR [P9A], the protein stability index rises from 3.52 to 3.59.

Compared with DINSVRYYISGDAFASGSDDATCR [P9I], DINSVRYYSSGDAFASGSDDATCR [P9S] is higher in protein stability index: 2.7 for the first, 4.17 for the second.

Compared with DINSVRYYKSGDAFASGSDDATCR [P9K], DINSVRYYNSGDAFASGSDDATCR [P9N] is higher in protein stability index: 3.62 for the first, 3.82 for the second.

Going from DINSVRYYCSGDAFASGSDDATCR [P9C] to DINSVRYYTSGDAFASGSDDATCR [P9T], the protein stability index rises from 3.17 to 4.02.

Compared with DINSVRYYLSGDAFASGSDDATCR [P9L], DINSVRYYMSGDAFASGSDDATCR [P9M] is higher in protein stability index: 3.26 for the first, 3.3 for the second.

Going from DINSVRYYVSGDAFASGSDDATCR [P9V] to DINSVRYYFSGDAFASGSDDATCR [P9F], the protein stability index falls from 3.62 to 2.74.

First: DINSVRYYESGDAFASGSDDATCR [P9E]
Second: DINSVRYYQSGDAFASGSDDATCR [P9Q]
The protein stability index of the first is higher: 4.16 for the first, 3.8 for the second.

First: DINSVRYYRSGDAFASGSDDATCR [P9R]
Second: DINSVRYYDSGDAFASGSDDATCR [P9D]
The protein stability index of the first is lower: 3.69 for the first, 4.43 for the second.

Compared with DINSVRYYPSLDAFASGSDDATCR [G11L], DINSVRYYPSIDAFASGSDDATCR [G11I] is lower in protein stability index: 3.9 for the first, 3.59 for the second.

Compared with DINSVRYYPSCDAFASGSDDATCR [G11C], DINSVRYYPSKDAFASGSDDATCR [G11K] is higher in protein stability index: 3.23 for the first, 3.68 for the second.

First: DINSVRYYPSADAFASGSDDATCR [G11A]
Second: DINSVRYYPSHDAFASGSDDATCR [G11H]
The protein stability index of the first is lower: 3.61 for the first, 3.62 for the second.

Going from DINSVRYYPSDDAFASGSDDATCR [G11D] to DINSVRYYPSFDAFASGSDDATCR [G11F], the protein stability index falls from 4.4 to 3.61.

First: DINSVRYYPSEDAFASGSDDATCR [G11E]
Second: DINSVRYYPIGDAFASGSDDATCR [S10I]
The protein stability index of the first is higher: 4.72 for the first, 3.76 for the second.

Going from DINSVRYYPCGDAFASGSDDATCR [S10C] to DINSVRYYPTGDAFASGSDDATCR [S10T], the protein stability index rises from 3.49 to 3.68.

Compared with DINSVRYYPPGDAFASGSDDATCR [S10P], DINSVRYYPGGDAFASGSDDATCR [S10G] is higher in protein stability index: 4.23 for the first, 4.35 for the second.

Compared with DINSVRYYPWGDAFASGSDDATCR [S10W], DINSVRYYPEGDAFASGSDDATCR [S10E] is higher in protein stability index: 3.35 for the first, 4.63 for the second.

First: DINSVRYYPHGDAFASGSDDATCR [S10H]
Second: DINSVRYYPQGDAFASGSDDATCR [S10Q]
The protein stability index of the first is lower: 3.65 for the first, 4.08 for the second.

Compared with DINSVRYYPYGDAFASGSDDATCR [S10Y], DINSVRYYPKGDAFASGSDDATCR [S10K] is higher in protein stability index: 3.1 for the first, 3.71 for the second.

First: DINSVRYYPRGDAFASGSDDATCR [S10R]
Second: DINSVRYYPMGDAFASGSDDATCR [S10M]
The protein stability index of the first is lower: 3.4 for the first, 3.43 for the second.

Compared with DINSVRYYPVGDAFASGSDDATCR [S10V], DINSVRYYPNGDAFASGSDDATCR [S10N] is higher in protein stability index: 3.73 for the first, 3.95 for the second.

First: DINSVRYYPDGDAFASGSDDATCR [S10D]
Second: DINSVRYYPLGDAFASGSDDATCR [S10L]
The protein stability index of the first is higher: 4.32 for the first, 3.43 for the second.

First: DINSVRYYPAGDAFASGSDDATCR [S10A]
Second: DINSVRYYPFGDAFASGSDDATCR [S10F]
The protein stability index of the first is higher: 3.76 for the first, 3.3 for the second.

Compared with DINSVRYGPSGDAFASGSDDATCR [Y8G], DINSVRYKPSGDAFASGSDDATCR [Y8K] is lower in protein stability index: 4.43 for the first, 3.79 for the second.

Compared with DINSVRYVPSGDAFASGSDDATCR [Y8V], DINSVRYSPSGDAFASGSDDATCR [Y8S] is lower in protein stability index: 4.55 for the first, 3.94 for the second.

Going from DINSVRYFPSGDAFASGSDDATCR [Y8F] to DINSVRYWPSGDAFASGSDDATCR [Y8W], the protein stability index rises from 3.82 to 4.24.

Compared with DINSVRYTPSGDAFASGSDDATCR [Y8T], DINSVRYQPSGDAFASGSDDATCR [Y8Q] is higher in protein stability index: 4.45 for the first, 4.77 for the second.

First: DINSVRYIPSGDAFASGSDDATCR [Y8I]
Second: DINSVRYHPSGDAFASGSDDATCR [Y8H]
The protein stability index of the first is higher: 4.5 for the first, 3.78 for the second.

Compared with DINSVRYMPSGDAFASGSDDATCR [Y8M], DINSVRYDPSGDAFASGSDDATCR [Y8D] is higher in protein stability index: 4.55 for the first, 4.87 for the second.

First: DINSVRYAPSGDAFASGSDDATCR [Y8A]
Second: DINSVRYLPSGDAFASGSDDATCR [Y8L]
The protein stability index of the first is higher: 4.49 for the first, 4.39 for the second.

Compared with DINSVRYEPSGDAFASGSDDATCR [Y8E], DINSVRYCPSGDAFASGSDDATCR [Y8C] is lower in protein stability index: 4.8 for the first, 4.43 for the second.

Going from DINSVRYPPSGDAFASGSDDATCR [Y8P] to DINSVRYRPSGDAFASGSDDATCR [Y8R], the protein stability index rises from 4.63 to 4.65.

Going from DINSVRYNPSGDAFASGSDDATCR [Y8N] to DISSVRYYPSGDAFASGSDDATCR [N3S], the protein stability index falls from 4.34 to 4.07.

Going from DIPSVRYYPSGDAFASGSDDATCR [N3P] to DILSVRYYPSGDAFASGSDDATCR [N3L], the protein stability index falls from 4.64 to 3.35.

Compared with DIKSVRYYPSGDAFASGSDDATCR [N3K], DIYSVRYYPSGDAFASGSDDATCR [N3Y] is lower in protein stability index: 4.04 for the first, 3.68 for the second.

Going from DIGSVRYYPSGDAFASGSDDATCR [N3G] to DICSVRYYPSGDAFASGSDDATCR [N3C], the protein stability index falls from 4.53 to 3.87.

First: DIDSVRYYPSGDAFASGSDDATCR [N3D]
Second: DIMSVRYYPSGDAFASGSDDATCR [N3M]
The protein stability index of the first is higher: 5.08 for the first, 3.42 for the second.

Going from DIHSVRYYPSGDAFASGSDDATCR [N3H] to DIESVRYYPSGDAFASGSDDATCR [N3E], the protein stability index rises from 4.43 to 4.52.

Going from DIQSVRYYPSGDAFASGSDDATCR [N3Q] to DITSVRYYPSGDAFASGSDDATCR [N3T], the protein stability index falls from 4.31 to 3.77.

Going from DIASVRYYPSGDAFASGSDDATCR [N3A] to DIRSVRYYPSGDAFASGSDDATCR [N3R], the protein stability index falls from 4.66 to 4.55.

Going from DIFSVRYYPSGDAFASGSDDATCR [N3F] to DIWSVRYYPSGDAFASGSDDATCR [N3W], the protein stability index falls from 3.76 to 3.74.

First: DIISVRYYPSGDAFASGSDDATCR [N3I]
Second: DIVSVRYYPSGDAFASGSDDATCR [N3V]
The protein stability index of the first is higher: 3.57 for the first, 3.56 for the second.
